This is an account of results in publication PMC12711061, “Far-infrared irradiation attenuates vessel contraction by activating SERCA2 through disruption of SERCA2 and PLN interaction” (PLOS One, 2025).

In the experiment the target is sarcoendoplasmic reticulum Ca2+-ATPase 2 (SERCA2), endogenous in rat VSMCs (rat (endogenous in rat aortic VSMCs), UniProt P11507 1-1043). Kind of experiment: cell-based or functional assay.
Chain of sarcoendoplasmic reticulum Ca2+-ATPase 2 (SERCA2), endogenous in rat VSMCs (P11507 whole entry): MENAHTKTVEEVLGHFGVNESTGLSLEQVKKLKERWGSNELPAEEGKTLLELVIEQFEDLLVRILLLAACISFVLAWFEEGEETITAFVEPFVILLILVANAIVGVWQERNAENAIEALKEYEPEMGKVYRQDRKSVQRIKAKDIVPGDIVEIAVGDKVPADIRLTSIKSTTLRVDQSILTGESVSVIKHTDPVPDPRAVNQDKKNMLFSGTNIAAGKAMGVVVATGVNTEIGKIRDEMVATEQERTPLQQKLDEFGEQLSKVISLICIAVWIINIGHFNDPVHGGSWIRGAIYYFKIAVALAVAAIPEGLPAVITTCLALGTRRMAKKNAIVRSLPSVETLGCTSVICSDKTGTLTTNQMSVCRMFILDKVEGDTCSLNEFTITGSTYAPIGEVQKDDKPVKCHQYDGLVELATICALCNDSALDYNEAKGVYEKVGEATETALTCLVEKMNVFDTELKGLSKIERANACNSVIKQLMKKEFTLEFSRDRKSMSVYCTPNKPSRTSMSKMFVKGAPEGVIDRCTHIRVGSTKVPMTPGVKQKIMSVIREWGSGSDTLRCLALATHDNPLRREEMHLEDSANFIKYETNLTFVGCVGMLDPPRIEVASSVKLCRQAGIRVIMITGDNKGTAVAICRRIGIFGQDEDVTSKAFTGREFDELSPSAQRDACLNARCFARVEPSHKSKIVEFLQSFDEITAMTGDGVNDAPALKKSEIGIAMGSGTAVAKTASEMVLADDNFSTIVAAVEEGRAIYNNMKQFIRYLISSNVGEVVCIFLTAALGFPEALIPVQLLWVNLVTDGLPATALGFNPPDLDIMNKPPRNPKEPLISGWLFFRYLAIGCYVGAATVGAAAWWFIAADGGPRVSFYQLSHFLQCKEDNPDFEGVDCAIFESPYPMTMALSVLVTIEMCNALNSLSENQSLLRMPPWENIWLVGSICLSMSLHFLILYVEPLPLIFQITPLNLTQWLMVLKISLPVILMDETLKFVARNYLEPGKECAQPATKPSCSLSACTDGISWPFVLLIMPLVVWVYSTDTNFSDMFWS

B1: phospholamban (PLN), endogenous in rat VSMCs (natural protein, rat (endogenous in rat aortic VSMCs), UniProt P61016 1-52, looked up)
chain: MEKVQYLTRSAIRRASTIEMPQQARQNLQNLFINFCLILICLLLICIIVMLL
Take B1: the “Ca2+-dependent SERCA activity in VSMC lysate (enzyme-coupled spectrophotometric assay), FIR irradiation for 30 min against the RT control” value stood at 4.5 fold.
